Data on 6 molecules can be found in patent publication US20210079074A1 (Alector, published 2021).

Like-named read-outs stand apart in the source and are kept apart here.

The target in assay [1] is T1, huMS4A4A-ECL2 free-peptide (human).
T1 construct: synthetic, free or BSA-conjugated, coated on the plate; also called human MS4A4A ECL2 peptide; huMS4A4A-ELC2 free-peptide
T1 peptide: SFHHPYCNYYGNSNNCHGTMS
Briefly: peptide ELISA, murine antibody. As for the experimental part: Coated plates were then blocked with ELISA diluent (PBS+0.5% BSA+0.05% Tween20) for 1-hour, washed 3×300 μL in PBST (PBS+0.05% Tween20, Thermo Cat#28352), and then the antibodies were added to the plate ([…]). After 30 mins incubation (room temperature, with shaking), the plates were washed 3×300 μL in PBST. […] After a final set of washes (3×300 μL in PBST), 50 μL of TMB substrate (BioFx Cat#TMBW-1000-01) was added and the reaction was then quenched after 5-10 mins with 50 μL of stop solution (BioFx Cat#BSTP-1000-01). The quenched reaction wells were detected for absorbance at […] with a BioTek Synergy Microplate Reader using GENS 2.04 software.
Background: In an ELISA, binding on a coated surface is turned into a signal by an enzyme label.

Assay [2] has as its target T2, human MS4A4A (human, UniProt Q96JQ5 1-239). Briefly: FACS, U937-huMS4A4A, 5 ug/ml. Put shortly:
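U937 cells expressing human MS4A4A were viability-stained, then 2×10^4 cells/well were incubated with mouse hybridoma IgG or recombinant human IgG1 Fc chimera in PBS/2% FBS/1 mM EDTA. A secondary antibody was then applied on ice for 15 min. Binding was read by flow cytometry as median fluorescence intensity.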
For orientation: Flow cytometry measures light scatter and fluorescence of single cells or particles in a stream.

Assay [3] deals with T3, recombinant MS4A4A soluble polypeptide JS5.
T3 construct: also called JS5.His
Briefly: ELISA, biotin-antigen on streptavidin plate. The procedure:
(§1) Anti-MS4A4A antibodies of the present disclosure were tested for their ability to bind to the different recombinant MS4A4A soluble polypeptides, as described in Example 2, as follows. Nucleic acid encoding the VH and VL domains of humanized anti-MS4A4A antibodies of the present disclosure were cloned into pcDNA3.4 vector which contains either the human IgG1 heavy chain constant domain or human kappa constant domain. The humanized anti-MS4A4A antibodies were expressed in Expi293 cells and were purified by Mab select antibody purification resin (GE Healthcare Life Science, cat#17519902) following the manufacture's protocol. ELISA was performed to measure binding of anti-MS4A4A antibodies of the present disclosure the recombinant MS4A4A soluble polypeptides. 1 μg/ml biotinylated antigens were preincubated on the streptavidin-coated ELISA plates (Thermo Scientific, cat#PI15120) for 1 hour. Plates were washed 3 times, followed by the addition of antibodies (1 μg/ml, 0.33 μg/ml, and 0.11 μg/ml antibodies. Plates were incubated at room temperature with shaking for 1 hr, washed 3 times, then 1/2500 dilution of HRP conjugates goat anti human kappa antibodies added (SigmaAldrich cat#. A7164-1ML).

In assay [4] the target is T4, recombinant MS4A4A soluble polypeptide JS6.
T4 construct: also called JS6.His
Briefly: ELISA, biotin-antigen on streptavidin plate. The procedure:
as §1

Assay [5] has as its target T5, negative control polypeptide JS4.
T5 construct: negative control for JS1; also called JS4.His
Briefly: ELISA, biotin-antigen on streptavidin plate. The procedure:
as §1

Assay [6] concerns the target T6, negative control polypeptide JS10.
T6 construct: negative control for JS5 and JS6; also called JS10.His
The experiment in a line: ELISA, biotin-antigen on streptavidin plate. The procedure: as §1

The target in assay [7] is T7, recombinant MS4A4A soluble polypeptide JS1.
T7 construct: also called JS1.His; loop grafted antigen
The experiment in a line: ELISA, biotin-antigen on streptavidin plate. The procedure: as §1

In assay [8] the target is T2, human MS4A4A. Briefly: cell-based or functional assay.
Assay [9] has as its target T2, human MS4A4A. Briefly: cell-based or functional assay. This is another data set of the same source.
Assay [10] addresses T2, human MS4A4A. The experiment in a line: FACS, U937-huMS4A4A, 5 ug/ml. As for the experimental part:
Anti-MS4A4A antibodies tested were either mouse IgGs purified from hybridoma supernatant or human IgG1 Fc chimeras produced recombinantly in Expi293 cells. Affinity binding to cells was determined as follows. Briefly, cells were harvested, washed, and labeled with Aqua Live/Dead for viability discrimination. After a wash with PBS, 2×10\hat{ }4 cells were aliquoted per well in 96-well U-bottom plates and incubated with 50 μL of purified anti-MS4A4A antibody at various concentrations (3× dilutions starting at 10 μg/mL) in FACS buffer (PBS+2% FBS+1 mM EDTA). After this primary incubation, the supernatant was removed via centrifugation, washed 2× with 150 μL of ice-cold FACS buffer, and incubated with the appropriate secondary antibody on ice for 15 minutes. Following the secondary antibody incubation, the cells were again washed 2× with ice-cold FACS buffer and resuspended in a final volume of 200 μL of FACS buffer. Flow cytometry analysis was performed on a FACSCanto system (BD Biosciences). Binding data was expressed as Median Fluorescent Intensity (MFI).
These experiments were performed using anti-MS4A4A antibodies at a concentration of 5 μg/ml and were assayed for cell binding by flow cytometry.
The source holds these as a separate data set.

Assay [11] deals with T3, recombinant MS4A4A soluble polypeptide …. The experiment in a line: ELISA, 0.33 ug/ml antibody. The procedure: as §1
The target is the same in assay [12]. Briefly: ELISA, 1 ug/ml antibody. Put shortly: (§2)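 Read-out is HRP-conjugated goat anti-human kappa (1/2500) bound to humanized anti-MS4A4A IgG1 captured by biotinylated antigen (1 μg/ml) immobilized on streptavidin plates. Antibodies, tested at 1, 0.33 and 0.11 μg/ml, were incubated 1 hr at room temperature with shaking.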
In assay [13] the target is T7, recombinant MS4A4A soluble polypeptide …. Briefly: ELISA, 1 ug/ml antibody. Put shortly:
as §2

Assay [14] has as its target T3, recombinant MS4A4A soluble polypeptide …. Briefly: ELISA, 0.11 ug/ml antibody. As for the experimental part: as §1
Assay [15] addresses FcγRIIIa receptor (V158 variant) (UniProt P08637 17-254). The experiment in a line: cell-based or functional assay.
Assay [16] addresses T8, FcγRIIa receptor (H131 variant) (UniProt P12318 34-317, limits assumed).
T8 sequence (looked up): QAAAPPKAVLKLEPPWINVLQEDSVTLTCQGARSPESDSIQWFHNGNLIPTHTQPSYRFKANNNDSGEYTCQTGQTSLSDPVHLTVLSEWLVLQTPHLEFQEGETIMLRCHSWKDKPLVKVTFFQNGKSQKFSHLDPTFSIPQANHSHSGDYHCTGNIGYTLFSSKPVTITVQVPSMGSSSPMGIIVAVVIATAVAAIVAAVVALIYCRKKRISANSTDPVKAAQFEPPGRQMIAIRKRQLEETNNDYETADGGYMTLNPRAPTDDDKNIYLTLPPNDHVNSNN
Briefly: cell-based or functional assay.

FcγRIIIa receptor (V158 variant), sequence (P08637 other isoform, or with tags, fused parts or gaps mutant limits assumed): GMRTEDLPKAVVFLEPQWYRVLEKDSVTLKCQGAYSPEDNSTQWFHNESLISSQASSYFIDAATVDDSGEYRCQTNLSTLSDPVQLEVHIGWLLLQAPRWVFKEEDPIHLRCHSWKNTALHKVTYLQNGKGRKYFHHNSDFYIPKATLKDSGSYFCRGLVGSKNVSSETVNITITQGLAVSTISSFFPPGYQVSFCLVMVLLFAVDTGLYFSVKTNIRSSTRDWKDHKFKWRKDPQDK

B1: anti-MS4A4A antibody 4A-25 (antibody, V domains shown)
VH: QVTLKESGPGILQPSQTLSLTCSFSGFSLRTSDMGVGWVRQPSGEGLEWLADIWWDDNKYYNPSLKSRLTISKDTSSNQVFLKITSVDTADTATYYCARRANYGNLFDYWGQGTAVTVSS
VL: DIVMTQSLKFMSTSVGDRVSITCKASQNVRSAVAWYQQKPGQSPKVLIYWASNRHTGVPDRFTGSGSGTDFTLTISNVQSEDLADYFCLQHWNYLTFGSGTKLEIK
notes: murine parental; mFc = murine Fc; also called 4A-25.mFc
With B1, in assay [1], the binding result is “binds”. The molecule further yielded an MFI in the assay with human MS4A4A [2] of 648. Besides, the “ELISA OD” value in assay [3] turned out to be 1.12; in assay [4], 1.26; in [5] it was 0.091; in assay [6], 0.063; in assay [7], 1.38.

B2: anti-MS4A4A antibody 4A-450 NSLF huIgG1 (antibody, V domains shown)
VH: QVQLVQSGSELKKPGASVKVSCKASGYAFTSYGLSWVRQAPGQGLEWMGWINTYSGVPTYAQGFTGRFVFSLDTSVSTAYLQISSLKAEDTAVYYCARTMADYWGQGTLVTVSS
VL: DVVMTQSPLSLPVTLGQPASISCKSSRSLLYSAGKTYLSWFQQRPGQSPRRLIYLVSKLDSGVPDRFSGSGSGTDFTLKISRVEAEDVGVYYCWQGIDFHQTFGGGTKVEIKR
Consider B2, for which the “EC50 of the increase of sTREM2, primary human macrophages” value with human MS4A4A [8] came to 0.069 µg/mL. In addition, the “EC50 of the increase of mTREM2, primary human macrophages” value with human MS4A4A [9] was 0.039 µg/mL.

B3: anti-MS4A4A antibody 4A-202 (antibody, V domains shown)
VH: QVQLQQSGAELARPGASVKLSCKASGYTFTNYWMQWVKQRPGQGLEWIGATHPGHGDTRYTQKFKGKATLSADKSSSTAYMQLSNLASEDSAVYYCAREEVYYGFRSYWYFDVWGRGTLVTVSS
VL: not shown
notes: murine parental; tested as mouse IgG or as human IgG1 Fc chimera (hFc), told under assay
With B3, the MFI with human MS4A4A [10] is 31700; in the assay with human MS4A4A [2], 216. Further, the “ELISA OD” value came to 0.111 in [11]; 0.188 in [12]; 0.079 in assay [14]; 1.22 in assay [3]; 1.23 in assay [4]; 0.111 in assay [5]. The “ELISA OD” value in assay [6] is 0.084; in assay [7] it was 1.16. In addition, the binding result in assay [1] was “binds”. For the same molecule, in assay [13], the OD450 was 0.141.

B4: anti-MS4A4A antibody 4A-18 (antibody, V domains shown)
VH: QVQLQQPGTELVKPGASVKLSCKASGYTFTSYWIHWVKQRPGQGLEWIGNINPTNGGTNYNERFKSKATLTVDKSSSTAYMQLSSLTSEDSAVYYCARAYYYGSSLFAYWGQGTLVTVSS
VL: DIVMTQSQKFMSTTVGDRVSITCKASQNVGTAVAWSQQKPGQSPKLLIYSASYRHTGVPDRFTGSGSGTDFTLTITNMQSEDLADYFCQQYSTYPWTFGGGTKLEIK
notes: murine parental; tested as mouse IgG1 or as human IgG1 Fc chimera (hFc), told under assay; also called 4A-18.hFc
For the molecule B4, in the assay with human MS4A4A [2], the MFI worked out at 382. The “ELISA OD” value in [3] was found to be 0.099; in assay [4], 0.105; in assay [5], 0.098; in [6], 0.092; in assay [7] it was 0.146.

B5: anti-MS4A4A antibody 4A-313 NSLF huIgG1 (antibody)
heavy: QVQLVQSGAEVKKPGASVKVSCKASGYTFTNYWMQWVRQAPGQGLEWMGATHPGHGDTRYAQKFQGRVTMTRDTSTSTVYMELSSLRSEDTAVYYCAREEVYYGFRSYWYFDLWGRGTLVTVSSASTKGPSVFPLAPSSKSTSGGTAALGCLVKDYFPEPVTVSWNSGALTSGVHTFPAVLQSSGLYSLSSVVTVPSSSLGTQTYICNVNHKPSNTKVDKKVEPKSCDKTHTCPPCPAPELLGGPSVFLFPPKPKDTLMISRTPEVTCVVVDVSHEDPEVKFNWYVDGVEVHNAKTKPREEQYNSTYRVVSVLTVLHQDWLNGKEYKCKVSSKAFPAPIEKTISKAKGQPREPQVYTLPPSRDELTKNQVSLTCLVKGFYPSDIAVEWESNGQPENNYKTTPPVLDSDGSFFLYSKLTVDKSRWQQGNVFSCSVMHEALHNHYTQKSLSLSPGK
light: EIVLTQSPATLSLSPGERATLSCRASESVDNYGVSRMNWYQQKPGQAPRLLIYGASNQGSGIPARFSGSGSGTDFTLTISSLEPEDFAVYYCQQSKEVPPTFGGGTKVEIKRTVAAPSVFIFPPSDEQLKSGTASVVCLLNNFYPREAKVQWKVDNALQSGNSQESVTEQDSKDSTYSLSSTLTLSKADYEKHKVYACEVTHQGLSSPVTKSFNRGEC
On to B5, for which the “EC50 of the increase of sTREM2, primary human macrophages” value in the assay with human MS4A4A [8] is 0.025 µg/mL. In addition, in the assay with human MS4A4A [9], the “EC50 of the increase of mTREM2, primary human macrophages” value is 0.028 µg/mL. In assay [15], the “luminescence, ADCC reporter, 3.048316 ng/mL” value came out at 324; the “luminescence, ADCC reporter, 9.144947 ng/mL” value was 356; the “luminescence, ADCC reporter, 27.43484 ng/mL” value amounted to 347; the “luminescence, ADCC reporter, 82.30453 ng/mL” value amounted to 360. Also, in [15], the “luminescence, ADCC reporter, 246.9136 ng/mL” value is 332; the “luminescence, ADCC reporter, 740.7407 ng/mL” value came to 363; the “luminescence, ADCC reporter, 2,222.222 ng/mL” value was 431; the “luminescence, ADCC reporter, 6,666.667 ng/mL” value is 415. Moreover, the “luminescence, ADCC reporter, 20,000 ng/mL” value in assay [15] worked out at 442. Further, in assay [16], the “luminescence, ADCP reporter, 3.048316 ng/mL” value came to 42; the “luminescence, ADCP reporter, 9.144947 ng/mL” value turned out to be 45; the “luminescence, ADCP reporter, 27.43484 ng/mL” value was 39; the “luminescence, ADCP reporter, 82.30453 ng/mL” value turned out to be 58. Further, in [16], the “luminescence, ADCP reporter, 246.9136 ng/mL” value came to 51; the “luminescence, ADCP reporter, 740.7407 ng/mL” value turned out to be 61; the “luminescence, ADCP reporter, 2,222.222 ng/mL” value was found to be 55; the “luminescence, ADCP reporter, 6,666.667 ng/mL” value is 227. Moreover, the “luminescence, ADCP reporter, 20,000 ng/mL” value in assay [16] was found to be 250.

B6: anti-MS4A4A antibody 4A-214 (antibody, V domains shown)
VH: EVKLEESGGGLVQPGRSMKLSCVASGFTFSNYWMNWVRQSPEKGLEWVAEIRLKSNNYATHYAESVKGRFTISRDDSKSSVYLQMNNLRAEDTGIYYCSSMIIVDYWGQGTTVTVSS
VL: DIVLTQSPASLTVSLGQRATISCRASQSVSSSTYSYLHWYQQRPGQPPKLLIKYASNLESGVPARFSGSGSGTVFTLNIHPVEEEDTATYYCQHSWEIPLTFGAGTKLEMK
notes: murine; mFc = murine Fc; also called 4A-214.mFc
On to B6, for which the binding result in assay [1] is “binds”. For the same molecule, the “ELISA OD” value was 1.62 in assay [3]; 1.71 in assay [4]; 0.11 in assay [5]; 0.086 in assay [6]; 1.74 in [7].
